Experiments:
[1] = target: T1, human C3bBb (Bb from FB D279G/K350N/M458I) (human); test: SPR, 37C
[2] = target: T1, human C3bBb (Bb from FB …); test: SPR, 25C
[3] = target: scFcRn (human, UniProt P55899); test: SPR, pH 6.0, 25C

T1 sequence (P01024 23-1663, chain 1 of 2): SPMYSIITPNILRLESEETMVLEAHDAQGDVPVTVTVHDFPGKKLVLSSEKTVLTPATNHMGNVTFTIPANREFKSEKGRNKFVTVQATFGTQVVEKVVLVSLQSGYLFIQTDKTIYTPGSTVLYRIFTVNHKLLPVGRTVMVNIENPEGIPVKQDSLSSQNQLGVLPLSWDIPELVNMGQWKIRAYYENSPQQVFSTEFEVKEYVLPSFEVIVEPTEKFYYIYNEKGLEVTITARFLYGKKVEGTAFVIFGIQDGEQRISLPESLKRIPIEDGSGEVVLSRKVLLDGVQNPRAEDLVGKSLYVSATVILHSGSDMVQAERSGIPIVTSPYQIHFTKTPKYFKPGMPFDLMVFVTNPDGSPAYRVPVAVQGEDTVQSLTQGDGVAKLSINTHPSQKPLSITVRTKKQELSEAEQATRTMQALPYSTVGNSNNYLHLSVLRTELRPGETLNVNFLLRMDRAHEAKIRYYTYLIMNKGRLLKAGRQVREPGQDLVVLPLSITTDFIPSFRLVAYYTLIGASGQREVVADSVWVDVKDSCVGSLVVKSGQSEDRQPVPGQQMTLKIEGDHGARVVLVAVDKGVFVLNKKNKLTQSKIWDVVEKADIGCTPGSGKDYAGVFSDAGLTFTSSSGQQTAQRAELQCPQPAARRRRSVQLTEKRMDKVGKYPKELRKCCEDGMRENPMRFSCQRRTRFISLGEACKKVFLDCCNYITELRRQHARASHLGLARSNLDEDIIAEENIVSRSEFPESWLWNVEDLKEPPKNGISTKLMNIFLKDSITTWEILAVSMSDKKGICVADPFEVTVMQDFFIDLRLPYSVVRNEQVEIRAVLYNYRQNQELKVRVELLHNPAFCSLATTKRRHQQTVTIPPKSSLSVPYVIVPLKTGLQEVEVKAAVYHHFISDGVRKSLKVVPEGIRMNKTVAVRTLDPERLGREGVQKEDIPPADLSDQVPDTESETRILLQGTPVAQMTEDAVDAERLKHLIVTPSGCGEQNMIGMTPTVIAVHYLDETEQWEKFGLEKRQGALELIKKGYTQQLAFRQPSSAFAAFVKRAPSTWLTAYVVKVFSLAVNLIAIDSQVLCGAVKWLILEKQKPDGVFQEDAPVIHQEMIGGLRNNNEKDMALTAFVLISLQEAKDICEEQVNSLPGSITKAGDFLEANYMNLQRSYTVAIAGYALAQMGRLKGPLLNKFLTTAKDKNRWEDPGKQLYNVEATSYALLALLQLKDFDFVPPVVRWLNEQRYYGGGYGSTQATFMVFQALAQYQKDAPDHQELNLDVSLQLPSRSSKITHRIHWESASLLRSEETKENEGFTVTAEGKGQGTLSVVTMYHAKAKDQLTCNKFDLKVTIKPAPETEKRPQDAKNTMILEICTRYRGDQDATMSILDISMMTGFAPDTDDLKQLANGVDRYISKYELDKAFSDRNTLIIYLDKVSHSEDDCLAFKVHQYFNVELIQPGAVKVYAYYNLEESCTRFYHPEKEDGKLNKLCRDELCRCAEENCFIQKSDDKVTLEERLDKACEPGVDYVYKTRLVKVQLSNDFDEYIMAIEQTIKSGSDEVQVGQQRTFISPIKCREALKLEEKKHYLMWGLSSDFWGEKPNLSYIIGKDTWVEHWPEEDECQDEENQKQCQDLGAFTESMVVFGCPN
T1 sequence (P00751 260-764 D279G/K350N/M458I, chain 2 of 2, further chain): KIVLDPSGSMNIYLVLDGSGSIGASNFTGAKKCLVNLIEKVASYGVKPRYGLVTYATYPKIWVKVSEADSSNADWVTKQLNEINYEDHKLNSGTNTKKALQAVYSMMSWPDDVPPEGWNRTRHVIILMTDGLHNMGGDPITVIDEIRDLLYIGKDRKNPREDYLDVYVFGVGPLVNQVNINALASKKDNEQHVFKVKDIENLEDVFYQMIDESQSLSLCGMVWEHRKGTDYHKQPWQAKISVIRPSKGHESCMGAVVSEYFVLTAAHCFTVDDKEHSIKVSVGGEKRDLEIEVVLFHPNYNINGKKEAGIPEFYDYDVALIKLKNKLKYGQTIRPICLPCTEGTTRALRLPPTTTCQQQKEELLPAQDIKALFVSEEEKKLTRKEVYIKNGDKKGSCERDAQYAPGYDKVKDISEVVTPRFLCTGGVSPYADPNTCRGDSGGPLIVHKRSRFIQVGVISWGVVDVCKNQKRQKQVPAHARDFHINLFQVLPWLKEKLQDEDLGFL

Binder	Kd [1]	Kd [2]	binding result [3]
P1AH1205 (antibody, V domains shown) VH: KVQLVESGGGLVQPGGSLRLSCAASGFKWEHYAMSWVRQAPGKGLEWVGSISPRGDHKYYNTKFIDRFTISRDNDKNTLYLQMNSLRAEDTAVYYCARDWDYFDRWGQGTLVTVSS VL: AIQMTQSPSSLSASVGDRVTITCQSQFWLSNYLAWYQQKPGKAPKLLIFDGDLPYERPSRFSGSGSHDEYTLTISSLQPEDFATYYCQQYREEPYTFGQGTKLEIK	0.095 nM	0.016 nM	–
P1AG9376 (antibody, V domains shown) VH: KVQLVESGGGLVQPGGSLRLSCAASGFKWEHYAMSWVRQAPGKGLEWVGSISPRGDHKYYNTKFIDRFTISRDNDKNTLYLQMNSLRAEDTAVYYCARDWDYFDRWGQGTLVTVSS VL: AIQMTQSPSSLSASVGDRVTITCQSQFWLSNYLAWYQQKPGKAPKLLIFDGDLPYERPSRFSGSGSHDEYTLTISSLQPEDFATYYCQQYREEPYTFGQGTKLEIK	< 0.001 nM	< 0.001 nM	–
P1AH1199 (antibody, V domains shown) VH: QVQLVESGGGLVQPGGSLRLSCAASGFKYDVYAMSWVRQAPGKGLEWVGEISPRGDSKYYNTKFIDRFTISRDNEKNTLYLQMNSLRAEDTAVYYCARDWEYFDNWGQGTLVTVSS VL: AIQMTQSPSSLSASVGDRVTITCQASYWLSNYLAWYQQKPGKAPKLLIFDGDIPWEIPSRFSGSGSHEEYTLTISSLQPEDFATYYCQQYRDTPYTFGQGTKLEIK	0.2 nM	0.03 nM	–
P1AH1205 full Fab (antibody) chain 1: KVQLVESGGGLVQPGGSLRLSCAASGFKWEHYAMSWVRQAPGKGLEWVGSISPRGDHKYYNTKFIDRFTISRDNDKNTLYLQMNSLRAEDTAVYYCARDWDYFDRWGQGTLVTVSSASTKGPSVFPLAPSSKSTSGGTAALGCLVKDYFPEPVTVSWNSGALTSGVHTFPAVLQSSGLYSLSSVVTVPSSSLGTQTYICNVNHKPSNTKVDKKVEPKSCD chain 2: AIQMTQSPSSLSASVGDRVTITCQSQFWLSNYLAWYQQKPGKAPKLLIFDGDLPYERPSRFSGSGSHDEYTLTISSLQPEDFATYYCQQYREEPYTFGQGTKLEIKRTVAAPSVFIFPPSDEQLKSGTASVVCLLNNFYPREAKVQWKVDNALQSGNSQESVTEQDSKDSTYSLSSTLTLSKADYEKHKVYACEVTHQGLSSPVTKSFNRGEC	–	–	no binding
P1AG9391 full IgG (antibody) chain 1: QVQLVESGGGLVQPGGSLRLSCAASGFKYDVYAMSWVRQAPGKGLEWVGEISPRGDSKYYNTKFIDRFTISRDNEKNTLYLQMNSLRAEDTAVYYCARDWEYFDNWGQGTLVTVSSASTKGPSVFPLAPSSKSTSGGTAALGCLVKDYFPEPVTVSWNSGALTSGVHTFPAVLQSSGLYSLSSVVTVPSSSLGTQTYICNVNHKPSNTKVDKKVEPKSCDKTHTCPPCPAPEAAGGPSVFLFPPKPKDTLMASRTPEVTCVVVDVSHEDPEVKFNWYVDGVEVHNAKTKPREEQYNSTYRVVSVLTVLAQDWLNGKEYKCKVSNKALGAPIEKTISKAKGQPREPQVYTLPPSRDELTKNQVSLTCLVKGFYPSDIAVEWESNGQPENNYKTTPPVLDSDGSFFLYSKLTVDKSRWQQGNVFSCSVMHEALHNAYTQKSLSLSP chain 2: AIQMTQSPSSLSASVGDRVTITCQASYWLSNYLAWYQQKPGKAPKLLIFDGDIPWEIPSRFSGSGSHEEYTLTISSLQPEDFATYYCQQYRDTPYTFGQGTKLEIKRTVAAPSVFIFPPSDEQLKSGTASVVCLLNNFYPREAKVQWKVDNALQSGNSQESVTEQDSKDSTYSLSSTLTLSKADYEKHKVYACEVTHQGLSSPVTKSFNRGEC	–	–	no binding
P1AG9426 full IgG (antibody) chain 1: QVQLVESGGGLVQPGGSLRLSCAASGFKYDVYAMSWVRQAPGKGLEWVGEISPRGDSKYYNTKFIDRFTISRDNEKNTLYLQMNSLRAEDTAVYYCARDWEYFDNWGQGTLVTVSSASTKGPSVFPLAPSSKSTSGGTAALGCLVKDYFPEPVTVSWNSGALTSGVHTFPAVLQSSGLYSLSSVVTVPSSSLGTQTYICNVNHKPSNTKVDKKVEPKSCDKTHTCPPCPAPEAAGGPSVFLFPPKPKDTLMASRTPEVTCVVVDVSHEDPEVKFNWYVDGVEVHNAKTKPREEQYNSTYRVVSVLTVLAQDWLNGKEYKCKVSNKALGAPIEKTISKAKGQPREPQVYTLPPSRDELTKNQVSLTCLVKGFYPSDIAVEWESNGQPENNYKTTPPVLDSDGSFFLYSKLTVDKSRWQQGNVFSCSVMHEALHNAYTQKSLSLSP chain 2: AIQMTQSPSSLSASVGDRVTITCQASYWLSNYLAWYQQKPGKAPKLLIFDGDIPYEIPSRFSGSGSHEEYTLTISSLQPEDFATYYCQQYRETPYTFGQGTKLEIKRTVAAPSVFIFPPSDEQLKSGTASVVCLLNNFYPREAKVQWKVDNALQSGNSQESVTEQDSKDSTYSLSSTLTLSKADYEKHKVYACEVTHQGLSSPVTKSFNRGEC	–	–	no binding
P1AH1199 full Fab (antibody) chain 1: QVQLVESGGGLVQPGGSLRLSCAASGFKYDVYAMSWVRQAPGKGLEWVGEISPRGDSKYYNTKFIDRFTISRDNEKNTLYLQMNSLRAEDTAVYYCARDWEYFDNWGQGTLVTVSSASTKGPSVFPLAPSSKSTSGGTAALGCLVKDYFPEPVTVSWNSGALTSGVHTFPAVLQSSGLYSLSSVVTVPSSSLGTQTYICNVNHKPSNTKVDKKVEPKSCD chain 2: AIQMTQSPSSLSASVGDRVTITCQASYWLSNYLAWYQQKPGKAPKLLIFDGDIPWEIPSRFSGSGSHEEYTLTISSLQPEDFATYYCQQYRDTPYTFGQGTKLEIKRTVAAPSVFIFPPSDEQLKSGTASVVCLLNNFYPREAKVQWKVDNALQSGNSQESVTEQDSKDSTYSLSSTLTLSKADYEKHKVYACEVTHQGLSSPVTKSFNRGEC	–	–	no binding

Other lines, results leading:

Kd [1]	Kd [2]	binding result [3]	Binder
0.0116 nM	< 0.001 nM	–	P1AG9372 (antibody, V domains shown) VH: EVQLVESGGGLVQPGGSLRLSCAASGFRFDIYAMSWVRQAPGKGLEWVGEISPDGRTKYYNTKFIDRFTISRDNEKNTLYLQMNSLRAEDTAVYYCARDWEYFDNWGQGTLVTVSS VL: AIQMTQSPSSLSASVGDRVTITCQSQFWLSNYLAWYQQKPGKAPKLLIFDGDLPYERPSRFSGSGSHDEYTLTISSLQPEDFATYYCQQYREEPYTFGQGTKLEIK
0.011 nM	< 0.001 nM	–	P1AG9420 (antibody, V domains shown) VH: RVQLVESGGGLVQPGGSLRLSCAASGFRYDHYAMSWVRQAPGKGLEWVGSISPRGNHKYYNTKFIDRFTISRDDEKNTLYLQMNSLRAEDTAVYYCARDWDYFDHWGQGTLVTVSS VL: AIQMTQSPSSLSASVGDRVTITCQASYWLSNYLAWYQQKPGKAPKLLIFDGDIPYEIPSRFSGSGSHEEYTLTISSLQPEDFATYYCQQYRETPYTFGQGTKLEIK
0.014 nM	< 0.001 nM	–	P1AG9426 (antibody, V domains shown) VH: QVQLVESGGGLVQPGGSLRLSCAASGFKYDVYAMSWVRQAPGKGLEWVGEISPRGDSKYYNTKFIDRFTISRDNEKNTLYLQMNSLRAEDTAVYYCARDWEYFDNWGQGTLVTVSS VL: AIQMTQSPSSLSASVGDRVTITCQASYWLSNYLAWYQQKPGKAPKLLIFDGDIPYEIPSRFSGSGSHEEYTLTISSLQPEDFATYYCQQYRETPYTFGQGTKLEIK
0.0016 nM	< 0.001 nM	–	P1AG9391 (antibody, V domains shown) VH: QVQLVESGGGLVQPGGSLRLSCAASGFKYDVYAMSWVRQAPGKGLEWVGEISPRGDSKYYNTKFIDRFTISRDNEKNTLYLQMNSLRAEDTAVYYCARDWEYFDNWGQGTLVTVSS VL: AIQMTQSPSSLSASVGDRVTITCQASYWLSNYLAWYQQKPGKAPKLLIFDGDIPWEIPSRFSGSGSHEEYTLTISSLQPEDFATYYCQQYRDTPYTFGQGTKLEIK
–	–	no binding	P1AG9372 full IgG (antibody) chain 1: EVQLVESGGGLVQPGGSLRLSCAASGFRFDIYAMSWVRQAPGKGLEWVGEISPDGRTKYYNTKFIDRFTISRDNEKNTLYLQMNSLRAEDTAVYYCARDWEYFDNWGQGTLVTVSSASTKGPSVFPLAPSSKSTSGGTAALGCLVKDYFPEPVTVSWNSGALTSGVHTFPAVLQSSGLYSLSSVVTVPSSSLGTQTYICNVNHKPSNTKVDKKVEPKSCDKTHTCPPCPAPEAAGGPSVFLFPPKPKDTLMASRTPEVTCVVVDVSHEDPEVKFNWYVDGVEVHNAKTKPREEQYNSTYRVVSVLTVLAQDWLNGKEYKCKVSNKALGAPIEKTISKAKGQPREPQVYTLPPSRDELTKNQVSLTCLVKGFYPSDIAVEWESNGQPENNYKTTPPVLDSDGSFFLYSKLTVDKSRWQQGNVFSCSVMHEALHNAYTQKSLSLSP chain 2: AIQMTQSPSSLSASVGDRVTITCQSQFWLSNYLAWYQQKPGKAPKLLIFDGDLPYERPSRFSGSGSHDEYTLTISSLQPEDFATYYCQQYREEPYTFGQGTKLEIKRTVAAPSVFIFPPSDEQLKSGTASVVCLLNNFYPREAKVQWKVDNALQSGNSQESVTEQDSKDSTYSLSSTLTLSKADYEKHKVYACEVTHQGLSSPVTKSFNRGEC
–	–	no binding	P1AG9376 full IgG (antibody) chain 1: KVQLVESGGGLVQPGGSLRLSCAASGFKWEHYAMSWVRQAPGKGLEWVGSISPRGDHKYYNTKFIDRFTISRDNDKNTLYLQMNSLRAEDTAVYYCARDWDYFDRWGQGTLVTVSSASTKGPSVFPLAPSSKSTSGGTAALGCLVKDYFPEPVTVSWNSGALTSGVHTFPAVLQSSGLYSLSSVVTVPSSSLGTQTYICNVNHKPSNTKVDKKVEPKSCDKTHTCPPCPAPEAAGGPSVFLFPPKPKDTLMASRTPEVTCVVVDVSHEDPEVKFNWYVDGVEVHNAKTKPREEQYNSTYRVVSVLTVLAQDWLNGKEYKCKVSNKALGAPIEKTISKAKGQPREPQVYTLPPSRDELTKNQVSLTCLVKGFYPSDIAVEWESNGQPENNYKTTPPVLDSDGSFFLYSKLTVDKSRWQQGNVFSCSVMHEALHNAYTQKSLSLSP chain 2: AIQMTQSPSSLSASVGDRVTITCQSQFWLSNYLAWYQQKPGKAPKLLIFDGDLPYERPSRFSGSGSHDEYTLTISSLQPEDFATYYCQQYREEPYTFGQGTKLEIKRTVAAPSVFIFPPSDEQLKSGTASVVCLLNNFYPREAKVQWKVDNALQSGNSQESVTEQDSKDSTYSLSSTLTLSKADYEKHKVYACEVTHQGLSSPVTKSFNRGEC
